test system: COc1cc(C=NN=Cc2cc(OC)c(O)c(OC)c2)cc(OC)c1O; test: purified protein; details: standard assay: 50 mM Na2HPO4-KH2PO4 pH 7.5, 100 µM CuSO4, 45 °C, conditions of the Km series not given separately

Substance | Km | kcat
Lac15 (uncultured bacterium) | 3.74 ± 0.37 µmol/L | 1.39 ± 0.11 s⁻¹
Lac15 (uncultured bacterium; DEL323-332) | 6.34 ± 0.19 µmol/L | 1.69 ± 0.13 s⁻¹
Lac15-His6 (uncultured bacterium) | 4.53 ± 0.21 µmol/L | 1.35 ± 0.09 s⁻¹
